Measured values: paper PMC12934148

Experiments:
[1] = tested on: Cas10-Csm K524E (Staphylococcus epidermidis); experiment: fluorescence polarization; settings: no Mg2+, 1 mM EDTA, Kd only in Fig 8B, 50 mM Tris-HCl pH 8.0, 400 mM NH4Cl, 5% v/v glycerol, 0.025% w/v BSA, 10 nM RNA, 2 h at room temperature
[2] = tested on: Cas10-Csm R754E (Staphylococcus epidermidis); experiment: fluorescence polarization; settings: no Mg2+, 1 mM EDTA, Kd only in Fig 8B, 50 mM Tris-HCl pH 8.0, 400 mM NH4Cl, 5% v/v glycerol, 0.025% w/v BSA, 10 nM RNA, 2 h at room temperature

## CUUUGUACUGAUGAUUUAUAUACAAGCCGAUACGUUCUCUAAA [pmRNA01-FMM2 (Nes target, segment 2 mismatch)]
[1]
  binding signal (fold Kd vs same mutant on cognate): 2.7
[2]
  binding signal (fold Kd vs same mutant on cognate): 1.6

## CUUUGUACUGAUGAUUUAUAUACUUCGGCAUACGUUCUCUAAA [pmRNA01-F (Nes cognate target)]
[1]
  binding signal (fold Kd vs wild type on cognate): 1.8
[2]
  binding signal (fold Kd vs wild type on cognate): 2.8
